Measured values reported in the nanobody polyreactivity screen of Harvey et al. (2022).

Experiment: yeast display, Sf9 membrane polyspecificity reagent, FACS + sequencing; frameworks hold sequencing errors
Procedure, shortened: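 Nanobodies from a synthetic yeast display library (Saccharomyces cerevisiae BJ5465), induced 36–48 hours with galactose, were stained 1 hour at 4 °C with 10% biotinylated, detergent-solubilized Sf9 membrane reagent, enriched on streptavidin microbeads, then FACS-sorted. Anti-HA (expression) and streptavidin (reagent binding) fluorescence set low and high (top ~1%) gates. Polyreactivity labels come from the gate of origin. Genes were colony-PCR amplified, MiSeq 2 × 250 sequenced and filtered by CDR length.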

Sequence	polyreactivity (PSR sort gate)
QVQLVESGGGLVQAGGSLRLSCAASGFIFGYNAMGWYRQSPGKERELVAAISTRGGSTYYADSVKGRFTISRDNAKNTVYLQMNSLKPEDTAVYYCNKVTRVPFDSWGQGTQVTVSS	high polyreactivity
QVQLVESGGGLVQAGGSLRLSCAASGFIFGYNDMGWYRQAPGKERELVAAINSGGSTYYADSVKGRFTISRDNAKNTVYLQMNSLKPEDTAVYYCAADYGYFEYDYWGQGTQVTVSS	low polyreactivity
QVQLVESGGGLVQAGGSLRLSCAASGFIFGYNVMGWYIQAPGKERELVASISTGGRTYYADSVKGRFTISRDNAKNTVYLQMYSLKPEDTAVYYCAARYRSYSYLYYSWGQGTQVTVSS	high polyreactivity
QVQLVESGGGLVQAGGSLRLSCAASGFIFGYYAMGGYRQAPGKERELVAAISSSGTRTYYADSVKGRFTISRDNAKNTVYLQMNSLKPEDTAVYYCAVTTAYSGAFYTGEYWGQGTQVTVSS	high polyreactivity
QVQLVESGGGLVQAGGSLRLSCAASGFIFGYYAMGWYRKAPGKERELVAAITSGDGSTYADSVKGRFTISRDNEKNTVYLQMNSLKPEDTAVYYCAAVFRYYTYSGAVRYYYWGQGTQVTVSS	high polyreactivity
QVQLVESGGGLVQAGGSLRLSCAASGFIFGYYAMGWYRQAPGKERDLVAAITSGTGTNYADSVKGRFTISRDNAKISVYLQMIRLKPEDTAVYYCAAYYTWLSEFGYWGQGTQVTVSS	low polyreactivity
QVQLVESGGGLVQAGGSLRLSCAASGFIFGYYAMGWYRQAPGKERELVAAISWSGVSTYYADSVKARFTISRDNAKNTVSLQMNSLKREDTAVYYCAFGYVLTGVFQARFDYWGQGTQVTVSS	high polyreactivity
QVQLVESGGGLVQAGGSLRLSCAASGFIFHEYAMGWSRQAPGKERELVAAISSGGGSTYYADSVKGRFTISRDNANNTVYLQMNSLKPEDTAVYYCAADATAYSVLTRDYWGQGTQVTVSS	high polyreactivity
QVQLVESGGGLVQAGGSLRLSCAASGFIFHTNTMGWYRQAPGKERELVAAISSGGRTNYADSVKGRFTISRDNAKNTVYLQMNSLKPEDTAVYYCAARVGSGFDSWGQGTQVTVSS	high polyreactivity
QVQLVESGGGLVQAGGSLRLSCAASGFIFHYYAMGWYRQAPGKERELVAAISKTGGSTYYADSVKGRFTISRDNAKNTVYLQMNSLKPEDTAVYYCAVARSAYYRGNHWGQGTQVTVSS	high polyreactivity
QVQLVESGGGLVQAGGSLRLSCAASGFIFIAYTMGWYRQAPGKERELVAAISSRGGRTYYADSVKGRFTISRDNAKNTVYLQMNSLKPEDTAVYYCAASYTYYSFGFGTDVRYGYWGQGTQVTVSS	high polyreactivity
QVQLVESGGGLVQAGGSLRLSCAASGFIFIRYAMGWYRQAPGKERELVAAISASGVRTYYADSVKGRFTISRDNAKNTVYLQMNSLKPEDTAVYDCAVRSAWVYGIGRYYWGQGTQVTVSS	high polyreactivity
QVQLVESGGGLVQAGGSLRLSCAASGFIFIYNAMGWYRQAPGKERELVASITSGGGSTYYADSVKGRFTISRDNAKNTVYLQMNSLKPEDTAVYYCAKQDAVQGAEASGEYDYWGQGTQVTVSS	low polyreactivity
QVQLVESGGGLVQAGGSLRLSCAASGFIFKFYAMGWYRQAPGKETELVAAISKSGGRTYYADSVKGRFTISRDNAKNSVYLQMNSLKPEDTAVYYCNAPSVGAAFDYWGQGTQVTVSS	high polyreactivity
QVQLVESGGGLVQAGGSLRLSCAASGFIFKHYAMGWYRPAPGKERELVAAITRSGGRTYYADSVKGRFTISRDYAKNTVYLQMNSLKPEDTAVYYCNVDGKKRHYRHYYLSAYDYWGQGTQVTVSS	high polyreactivity
QVQLVESGGGLVQAGGSLRLSCAASGFIFKIYAMGWYRQAPGKERELVAAISSGDNTNYADSVKGRFTISRDNAKNTVYLQMNSLKPEDNAVYYCAALRYTYLGQLQWSRSGRYDYWGQGTQVTVSS	high polyreactivity

Sequence	polyreactivity (PSR sort gate)
QVQLVESGGGLVQAGGSLRLSCAASGFIFKLYAMGWYRQAPGKERELVAAIRSSGGSTYYADSVKGRFTISRDNAKNTVYLQMNSLKPEDTAVYYCAKVGGRVRYNYWGQGTQVTVSS	high polyreactivity
QVQLVESGGGLVQAGGSLRLSCAASGFIFKRYAMGWYRQAPGKERELVATISNSGGRTYYADSVKGRFTISRDNAKNTVYLQINSLKPEDTAVYYCDALPFWWGGYWGQGTQVTVSS	high polyreactivity
QVQLVESGGGLVQAGGSLRLSCAASGFIFKRYAMGWYRQAPGKERELVAVITRSGGSTYYADSVKGRFTISRDNAKNTVYLQMNSLKPEDTAVYYCAVDFTDRGYDYWGQGTQVTVSS	high polyreactivity
QVQLVESGGGLVQAGGSLRLSCAASGFIFKSYAMGWYRQAPGKETELVAAISRSGSSTYYADSVKGRFTISRDNAKNTVYLQMNSLKPEDTAVYYCAKKGYRFIHFGYDYWGQGTQVTVSS	high polyreactivity
QVQLVESGGGLVQAGGSLRLSCAASGFIFKYYAMGWYRQAPGKERELVAAISRRGGSTFYADSVKGRFTISRDNAKNTVYLQMNSLKPEDTAVYYCAAYYYYSAYGDDYWGQGTQVTVSS	high polyreactivity
QVQLVESGGGLVQAGGSLRLSCAASGFIFLFYAMGWYRQAPGKERELVAAISSGVSTNYADSVKGRFTISRDNAKNTVYLQMNSLKPEDTAVYYCNTTQSTSLLYDYWGQGTQVTVSS	low polyreactivity
QVQLVESGGGLVQAGGSLRLSCAASGFIFLIYAIGWYRQAPGTERELVATIRYSGGRTYYADSVKGRFTISRDNAKNTVYLQMNSLKPEDTAVYYCAARSVWFSGQGRMNYWGQGTQVTGSS	high polyreactivity
QVQLVESGGGLVQAGGSLRLSCAASGFIFLPNDMGWYRQAPGKEREFVAAIDWSGGSTYYADSVKGRFTISRDNAKNTVYLQMNSLKPEDTAVYYCNAEGRRVGFRIDYDYWGQGTQVTVSS	low polyreactivity
QVQLVESGGGLVQAGGSLRLSCAASGFIFLPYAMGWYRQEPGKERELVAAITRGGRTYYADSVKGRFTISRDNAKNTVSLQMNSLKPEVTAVSYFAATPYLFWGYNYWGQGTQVTVSS	low polyreactivity
QVQLVESGGGLVQAGGSLRLSCAASGFIFLSNAMGWYRQAPGKERELVAAITSGGSTNYADSVKGRFTISRDNAKNTVYLQMNSLKPEDTAVYYCAARAPQWTFALGRWDRDYWGQGTQVTVSS	low polyreactivity
QVQLVESGGGLVQAGGSLRLSCAASGFIFLSNGMVWYRQAPGKERELVAAISSSGGSTYYADSVKGRFTISRDTAKNTVYLQMNSLKPEDTAVYYCAKDNGPWFAYDYWGQGSQVTVSS	low polyreactivity
QVQLVESGGGLVQAGGSLRLSCAASGFIFLYNAMGWYRPAPGKERQLVAAITSSGATTYYADSVKGRFTISRDNAKNTDYLQMNSLKPEDTAVYYCAARYTGRNGGSTTPEYDYWGQGTQVTVSS	low polyreactivity
QVQLVESGGGLVQAGGSLRLSCAASGFIFLYNTMGWYRQAPGKERELVAAISGGGGSTSYADSVKGRFTISRDNAKNTVYLQMNSLKPEDTAVYYCAKKSTYYKWSRMYWGQGTQVTVSS	high polyreactivity
QVQLVESGGGLVQAGGSLRLSCAASGFIFLYYAMGWYRPAPGKEGELVAAISRSGGRTYYADSVKGRFTISRDNAKNTVYLQMNSLKPEDTAGYYCAARSARTSSFPIFYYWGQGTQVTVSS	high polyreactivity
QVQLVESGGGLVQAGGSLRLSCAASGFIFLYYAMGWYRQAPGKERELVADISRGADTKYADSVKGRFTISRDNAKNTVYLQMNSLKPEDTAVYYCATDITTFWVPYPGVELGYWGQGTQVTVSS	low polyreactivity
